# Source: patent US20230279132A1, “TREATMENT OF B CELL MALIGNANCIES” (NOVARTIS AG, priority 2020, published 2023)
# Molecular target: B-cell activating factor receptor (BAFF-R) (human) (UniProt Q96RJ3)
# Assay: receptor occupancy in patients with CLL given VAY736 i.v. with ibrutinib (clinical study CVAY736Y2102); method not stated
binder,measurement,value
"ianalumab (antibody, human IgG1, kappa, V domains shown) VH: QVQLQQSGPGLVKPSQTLSLTCAISGDSVSSNSAAWGWIRQSPGRGLEWLGRIYYRSKWYNSYAVSVKSRITINPDTSKNQFSLQLNSVTPEDTAVYYCARYDWVPKIGVFDSWGQGTLVTVSS VL: DIVLTQSPATLSLSPGERATLSCRASQFISSSYLSWYQQKPGQAPRLLIYGSSSRATGVPARFSGSGSGTDFTLTISSLEPEDFAVYYCQQLYSSPMTFGQGTKVEIKR",tissue receptor occupancy,> 99%
